Laboratory results reported in the nanobody polyreactivity screen of Harvey et al. (2022).

Assay: yeast display, Sf9 membrane polyspecificity reagent, FACS + sequencing; frameworks hold sequencing errors
Outline: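 Nanobodies came from a synthetic yeast display library in Saccharomyces cerevisiae BJ5465, induced with galactose for 36–48 hours and stained for 1 hour at 4 °C with 10% biotinylated, detergent-solubilized Sf9 membrane reagent. Cells were enriched on streptavidin microbeads and then FACS-sorted, with low and high (top ~1%) gates set on anti-HA fluorescence for expression and streptavidin fluorescence for reagent binding. Each polyreactivity label reflects the gate a clone came from. Genes were amplified by colony PCR, sequenced by MiSeq 2 × 250 and filtered by CDR length.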

For “QVQLVESGGGLVQAGGSLRLSCAASGSIFDRNAMGWYRQAPGKERELVAAITSGGSTYYADSVKGRFTISRDNAKNTVYLQMNSLKPEDTAVYYCNADTDPPVPLYYWGQGTQVTVSS”, the “polyreactivity (PSR sort gate)” value was “low polyreactivity”.

In the case of “QVQLVESGGGLVQAGGSLRLSCAASGSIFDRYALGWYRQAPGKERELVAAISTGGSTNYADSVKGRFTISRDNAKNTVYLQMNSLKPEDTAVYYCAAASPYHEYDYWGQGTQVTVSS”, the “polyreactivity (PSR sort gate)” value is reported as “low polyreactivity”.

With “QVQLVESGGGLVQAGGSLRLSCAASGSIFDRYAMGWYRQAPGKERELVAAISRSGGSTYYADSVMGRFTISRDNAKNTVYLQMNSLKPEDTAVYYCAAYQHPGLRTSYEYWGQGTQVTVSS” the “polyreactivity (PSR sort gate)” value was “low polyreactivity”.

In the case of “QVQLVESGGGLVQAGGSLRLSCAASGSIFDRYAMGWYRQAPGKERELVAAISTGGSTNYADSVKGRFTISRDNAKNTVYLQMNSLKPEDTAVYYCAAERYWVFHGTISYKYDYWGQGTQVTVSS”, the “polyreactivity (PSR sort gate)” value is reported as “low polyreactivity”.

With “QVQLVESGGGLVQAGGSLRLSCAASGSIFDSNAMGWYRQAPGKERELVAAITGSGSTNYADSVKGRFTISRDNAKNTVYLQMNSLKPEDTAVYYCNAQAPYTEFDYWGQGTQVTVSS” the “polyreactivity (PSR sort gate)” value was “low polyreactivity”.

For “QVQLVESGGGLVQAGGSLRLSCAASGSIFDSNAMGWYRQAPGKERELVAAITGSGTSTYDADSVKGRFTISRDNAKNTVYLQMNSLKPEDTAVYYCAAAPEYLTDHDYWGQGTQVTVSS”, the “polyreactivity (PSR sort gate)” value was “low polyreactivity”.

In the case of “QVQLVESGGGLVQAGGSLRLSCAASGSIFDSNAMGWYRQAPGKERELVAVITGSGGITYYADSVKGRFTISRDNAKNTVYLQMNRLKPEDTAVYYCYADYYLSEDGTWIYDYWGQGTQVTVSS”, the “polyreactivity (PSR sort gate)” value is reported as “high polyreactivity”.

For “QVQLVESGGGLVQAGGSLRLSCAASGSIFDSYVMGWYRQAPGKERELVAAITYSGGSTYADSVMGRFTISRDNAKNTVYLQMNSVKPEDTAVYYCAAASYFYLYLLEDYWGQGTQVTVSS”, the “polyreactivity (PSR sort gate)” value was “low polyreactivity”.

For “QVQLVESGGGLVQAGGSLRLSCAASGSIFDTYAMGWYRQATGKERELVSTISWSGDSKYYADSVKGRFTISRDNAKNTVYLQINSLKPEDTAVYYCAADVGQVWDHEDYDYWGQGTQVTVSS”, the “polyreactivity (PSR sort gate)” value was “low polyreactivity”.

With “QVQLVESGGGLVQAGGSLRLSCAASGSIFDVNAMGWYRQATGKERELVAAISDSGGSTYYADSVKGRFTISRDNAKNTVYLQMNSLKPEDTAVYYSNADWSWYNYYDFDYWGHGTQVTVSS” the “polyreactivity (PSR sort gate)” value was “low polyreactivity”.

For “QVQLVESGGGLVQAGGSLRLSCAASGSIFDVNSMGWYRQAPGKERELVAAISDSGGSTYYADSVKGRFTISRDNAKNTVYLQMNSLKPEDTAVYYCNADWSWYNYYDFDYLGQGTQVTVSS”, the “polyreactivity (PSR sort gate)” value was “low polyreactivity”.

With “QVQLVESGGGLVQAGGSLRLSCAASGSIFDVNTMGWYSQAPGKERELVAGITSRGGSTYYADSVKGRFTISRDNAKNTVYLQMNSLKPEDTAVYYCAKRAYGTALYRGYGYWGQGTQVTVSS” the “polyreactivity (PSR sort gate)” value was “low polyreactivity”.

With “QVQLVESGGGLVQAGGSLRLSCAASGSIFDVYAMGWYRQAPGKERELVAAIDSGGSSTYYADSVKGRFTISRDNAKNTVYLQMNSLKPEDTAVYYCAARPYYSWNYDYWGQGTQVTVSS” the “polyreactivity (PSR sort gate)” value was “low polyreactivity”.

In the case of “QVQLVESGGGLVQAGGSLRLSCAASGSIFDVYAMGWYRQAPGKERELVAAITFDGGSTYYADSVKGRFTISRDNAKNTVYLQMNSLKPEDTAVYDCNAEFYFLWDWQSFDYWGQGTQVTVSS”, the “polyreactivity (PSR sort gate)” value is reported as “high polyreactivity”.

With “QVQLVESGGGLVQAGGSLRLSCAASGSIFDVYTMGWYRQAPGKERELVAAISQSTGSTYYAASVKGRFTISRDNAKNTVYLQMNSLIPEDTAVYYCNAKFRFVTYKTPYVFWGQVTQVTVSS” the “polyreactivity (PSR sort gate)” value was “low polyreactivity”.

For “QVQLVESGGGLVQAGGSLRLSCAASGSIFDWYAMGCYRQAPGKEGELVAAISSGDSTYYADSVKGRFTISRDNAKNTVYLQMNSLKPEDTAVYYCAAVTKLSGIRYNYWGQGTQVTVSS”, the “polyreactivity (PSR sort gate)” value was “low polyreactivity”.

With “QVQLVESGGGLVQAGGSLRLSCAASGSIFDYNAMGWNRQAPGKETELVAAITSTDSTYADSVKGRFTISRDNAKNTVYLQMNSLKPEDTAVYYCAAEDVIYYLTGQWREYDYWGQGTQVNVSS” the “polyreactivity (PSR sort gate)” value was “low polyreactivity”.

With “QVQLVESGGGLVQAGGSLRLSCAASGSIFDYNAMGWYRQAPGKERELVAAINYSGTRTYYADSVKGRFTISRDNAKNTVYLQMNSLKPEDTADYYCAARVRVPQTARLHEYWGQGTQVTVSS” the “polyreactivity (PSR sort gate)” value was “high polyreactivity”.

For “QVQLVESGGGLVQAGGSLRLSCAASGSIFDYNAMGWYRQAPGKERELVAAISSGGSTYYADSVKGRFTISRDNAKNTVYLQMNSLKPEDTAVYYCAVKFWYHIYDYWGQGTQVTVSS”, the “polyreactivity (PSR sort gate)” value was “low polyreactivity”.

In the case of “QVQLVESGGGLVQAGGSLRLSCAASGSIFDYNTMGWYRQAPGKERELVAAISSNGGSTYYADSVKGRFTISRDNAKNTVYLQMNSRNPEDTAVYYCAVSIYVYHLDLEYWGQGTQVTVSS”, the “polyreactivity (PSR sort gate)” value is reported as “low polyreactivity”.

In the case of “QVQLVESGGGLVQAGGSLRLSCAASGSIFDYYAMGWYRQAPGKERELVAAISESSDSTYYADSVKGRFTISRDNAKNTVYLQMNSLKPEDTAVYYCAAYRGTLLTAYDYWGQGTQVTVSS”, the “polyreactivity (PSR sort gate)” value is reported as “low polyreactivity”.

In the case of “QVQLVESGGGLVQAGGSLRLSCAASGSIFDYYDMGWYRQAPGKERELVAAINWSGGITYYADSVKGRFTISRDNAKNTVYLQMNSLKPEDTAVYYCAADWYQWVYSSSITSFDYWGQGTQVTVSS”, the “polyreactivity (PSR sort gate)” value is reported as “low polyreactivity”.

In the case of “QVQLVESGGGLVQAGGSLRLSCAASGSIFDYYTMGWYRQAPGKERELVAAISWSGGSTYYADSVKGRFTISRDNAKNTVYLQMNSLKPEDTAVYYCNAVGYSRYTVWSYYYWGQGTQVTVSS”, the “polyreactivity (PSR sort gate)” value is reported as “high polyreactivity”.

With “QVQLVESGGGLVQAGGSLRLSCAASGSIFEANDMGWYRQAPGKERELVAAIDANTGSTYYADSVKGRFTISRDNAKNTVYLQMNSLKPEDTAVYYCNAQVYLHTAYDYWGQGTQVTVSS” the “polyreactivity (PSR sort gate)” value was “low polyreactivity”.

In the case of “QVQLVESGGGLVQAGGSLRLSCAASGSIFEAYVMGWYRQAPGKQRELVAAITTGGGSTYYADSVKWRFTISRDNAKNTVYLQMNSLKPEDTAVYYCGKDYWFGYEYWGQGTQVTVSS”, the “polyreactivity (PSR sort gate)” value is reported as “low polyreactivity”.

In the case of “QVQLVESGGGLVQAGGSLRLSCAASGSIFEDYAMGWYRQAPGKERELVAGINWSGGSTYYADSVKGRFTISRDNAKNTVYLQMNSLKPEDTAVYYCAAKAFYYYYTEHDYWGQGTQVTVSS”, the “polyreactivity (PSR sort gate)” value is reported as “high polyreactivity”.

For “QVQLVESGGGLVQAGGSLRLSCAASGSIFEEYAMGWYRQAPGKERELVARIDESGGSTYYADSVKGRFTISRDNAKNTVYLQMNSLKPEDTAVYYCAAERYSDSWGYYSVDEGSWEMDYWGQGTQVTVSS”, the “polyreactivity (PSR sort gate)” value was “low polyreactivity”.

For “QVQLVESGGGLVQAGGSLRLSCAASGSIFEGNGMGWYRQAPGKERELVASITRSGGSTYYADSVKGRFTISRDNAKNTVYLQMNSLKPEDTAVYYCAVSRDSYGGKGSVLYDYWGQGTQVTVSS”, the “polyreactivity (PSR sort gate)” value was “low polyreactivity”.

In the case of “QVQLVESGGGLVQAGGSLRLSCAASGSIFEGNGRGWYREAPGKDRELVAAITFRSGSTYYADSVKGRFTISRDNAKNTVYLQMNSLKPEDTAVYYCAADEYYQVSAYDYWGQGTQVTVSS”, the “polyreactivity (PSR sort gate)” value is reported as “low polyreactivity”.

With “QVQLVESGGGLVQAGGSLRLSCAASGSIFEGSVMGWSRQAPGKEREWVATISFSGGSTYYADSVKGRFTISRDNAKNTLYLQMNSLKPEDTAVYYCNALVYHTKGDYGYWGQGTQVTVSS” the “polyreactivity (PSR sort gate)” value was “low polyreactivity”.

With “QVQLVESGGGLVQAGGSLRLSCAASGSIFEGYAMGWYRQAPGKERELVAAISRSGGSTYYADSVKGRFTISRDNAKNTVYLQMNSLKPEDTAVYYCAARKAIDYQGRHDHWGQGTQVTVSS” the “polyreactivity (PSR sort gate)” value was “low polyreactivity”.

In the case of “QVQLVESGGGLVQAGGSLRLSCAASGSIFEGYSMGWYRQAPAKERELVARITSDDDSTYYADSVKGRFTISRDNAKNTVYLQMNSLKPEDSAVYYCNADYYWTSLAMDSWGQGTQVTVSS”, the “polyreactivity (PSR sort gate)” value is reported as “low polyreactivity”.

In the case of “QVQLVESGGGLVQAGGSLRLSCAASGSIFEGYVMGCDIQAPGKERELVATISFSGGSTYYADSVKGRFTISRDNAKNTVYLQMNSLKPEDTAVYYCNALVYHTKGDYGYWGQGTQVTVSS”, the “polyreactivity (PSR sort gate)” value is reported as “low polyreactivity”.

For “QVQLVESGGGLVQAGGSLRLSCAASGSIFELNAMGWYRQAPGKERELVAAIRWRTGRTYYADSVKGRFTISRDNAKNTVYLQMNSLKPEDTAVYYCAAPVRSGVRYTLDYWGQGTQVTVSS”, the “polyreactivity (PSR sort gate)” value was “high polyreactivity”.

For “QVQLVESGGGLVQAGGSLRLSCAASGSIFELNAMGWYRQAPGKERELVAAITSSGSSTYYADSVKGRFTISRDNAKNTVYLQMNSLKPEDTAVYYCFRPHDYWGQGTQVTVSS”, the “polyreactivity (PSR sort gate)” value was “low polyreactivity”.

For “QVQLVESGGGLVQAGGSLRLSCAASGSIFEPYTMGWYRQAPGKERELVAAITGSGCSKFYADSVKGRFTISRDNAKNTVYLQMNSLKPEDTGVYYCNAYAYPYTDVDYWGQGTQVTVSS”, the “polyreactivity (PSR sort gate)” value was “low polyreactivity”.

For “QVQLVESGGGLVQAGGSLRLSCAASGSIFEPYVMGWYRQAPGKERELVAAIRQTGGSTYYADSVKGRFTISRDNAKNTVYLQMNSLKPEDTAVYYCNAEQNPSALYDYRGVEGEMGYWGQGTQVTVSS”, the “polyreactivity (PSR sort gate)” value was “low polyreactivity”.

In the case of “QVQLVESGGGLVQAGGSLRLSCAASGSIFEQYAMGWYRQAPGKERELVAGINWSTGSTYYADSVKGRFTISRDNAKNTVYLQMNSLKPEDTAVYYCAAEVAGALSDYDYWGQGTQVNVSS”, the “polyreactivity (PSR sort gate)” value is reported as “low polyreactivity”.

For “QVQLVESGGGLVQAGGSLRLSCAASGSIFEQYTMGWYRQAPGKERELVAAISYSGGRTYYADSVKGRFTISRDNAKNTVYLQMNSLKPEDTAVYYCATRGRDRRIYGYWGQGTQVTVSS”, the “polyreactivity (PSR sort gate)” value was “high polyreactivity”.

In the case of “QVQLVESGGGLVQAGGSLRLSCAASGSIFERYALGWYSQAPGKEREMVAAITWTGGRTYYADSVKGRFTISRDIAKNTVYLQMNSLKPEDTAVYYCARSYTRRGYDYWGLGTQVTVSS”, the “polyreactivity (PSR sort gate)” value is reported as “high polyreactivity”.

In the case of “QVQLVESGGGLVQAGGSLRLSCAASGSIFESNGMGCYRQAPGKERELVASISNGDITYFADSVKGRFTISRDNAKNTVYLQMNSLKPEDTAVYYCAATLYRNYVIFRYDYSGQGTQVTVSS”, the “polyreactivity (PSR sort gate)” value is reported as “low polyreactivity”.

For “QVQLVESGGGLVQAGGSLRLSCAASGSIFEVYAMGWYRQAPGKDRELVAAITSSDITYYADSVKGRFTISRDNAKNTVYLQMNSLKPEDRAVFYCNAEPPYRVKRSDYWGQGTQVTVSS”, the “polyreactivity (PSR sort gate)” value was “low polyreactivity”.

In the case of “QVQLVESGGGLVQAGGSLRLSCAASGSIFEWNDMGWYRQAPGKEREFVAAITSTDDGTYYADSVKGRFTISRDNAKNTVYLQMNSLKPEVTAVYYCAVDYWDVPYYWGQGTQVTVSS”, the “polyreactivity (PSR sort gate)” value is reported as “low polyreactivity”.
